From patent US10745461B2, “Pulsed introduction of low-dose RANKL as a therapy for diet-induced atherosclerosis” (Saint Louis University, priority 2015, dated 2020)
Entries after “also recorded” stand apart in the source; their conditions may differ.

B1: IL-17A: recombinant murine IL-17A, pro-inflammatory cytokine (protein, UniProt Q62386 26-158, looked up)
Interleukin-17A: AAIIPQSSACPNTEAKDFLQNVKVNLKVFNSLGAKVSSRRPSDYLNRSTSPWTLHRNEDPDRYPSVIWEAQCRHQRCVNAEGKLDHHMNSVLIQQEILVLKREPESCPFTFRVEKMLVGVGCTCVASIVRQAA

Tests used:
[1] = test system: FoxP3 induction in OT-I CD8 T-cells by osteoclasts; assay: TcREG (FoxP3) induction in OT-I CD8 T-cells co-cultured with bone marrow-derived osteoclasts; format: cell-based, mice; conditions: in culture, IL-17 10 ng/ml, increasing TNFα, DAPT 10 μM, Fc proteins added to T-cells prior to co-culture
Procedure: It was also determined that IL-17 and TNFα suppresses TcREG induction by osteoclasts. […] Another possibility is that loss of estrogen leads to increased production of the pro-inflammatory cytokines by T-cells that increase osteoclast activity. Without being limited to any method of operation, it is actually expected that in the presence of pro-inflammatory cytokines osteoclasts fail to induce TcREG. As estrogen depletion lead to greater number of osteoclasts because of a decreased Fas ligand expression, the loss of TcREG induction and increased osteoclast numbers would tip the balance towards increased osteoclast resorption and net bone loss. To test fir this possibility, OC-iTcREG induction was measured in the presence of IL-17 and TNFα. […] To understand the underlying mechanism of how TNFα affects osteoclasts' ability to induce TcREG, the signals provided by osteoclasts to induce FoxP3 in the CD8 T-cells were investigated along with if these signals were affected by […].
(§1) The most common and well-studied costimulatory signals on antigen-presenting cells are CD80 (B7.1) and CD86 (B7.2). As CD80/CD86 double knockout mice are commercially available, osteoclasts were generated from bone marrow precursors of these mice. The CD80/CD86 null osteoclasts (as well as wild-type controls) were then used to prime OT-I T-cells in the presence and absence of antigen. […] OT-I CD8 T-cells activated by CD80/CD86 null osteoclasts produced IL-6, IL-2 and IFN-γ to levels indistinguishable from wild-type mice (FIG. 4B). Having ruled out CD80/CD86 as the costimulatory molecules, an osteoclast microarray dataset was queried for other costimulatory molecules expressed by osteoclasts. Osteoclasts that express CD200 and c-Mer were found. The role of CD200 was chosen for testing based on the phenotype of CD200^−/− mice and the reported role for CD200 in regulating TcREG.
The most, well characterized regulator of FoxP3 in T-cells is TGFβ. It has been previously shown that neutralization or addition of TGFβ has no effect on the induction of TcREG. Therefore identification of other pathways that can regulate the FoxP3 promoter in T-cells was sought. A number of previous studies have identified that the Notch signaling contributes to FoxP3 induction. To test if Notch signaling is important for TcREG induction by osteoclasts, the γ-Secretase inhibitor DAPT was initially used. Ligation of the Notch receptor by its ligand leads to cleavage of Notch by γ-secretase. […] Next, we identified the Notch ligands expressed in osteoclasts using reverse-transcription followed by PCR. […] Of the four, the osteoclast-precursors (bone marrow cells treated with M-CSF but not RANKL) express all of the ligands except DLL4 (FIG. 5C). To assess the role of DLL4 in TcREG (soluble) DLL4-Fc was added to OT-I CD8 T-cells prior to co-culturing with osteoclasts. […] To assess the role of DLL4 in vivo the induction experiments as described in FIG. 1 were performed: GFP negative (polyclonal) CD8 T-cells were purified by cell sorting and transferred into OT-II Rag^−/− mice. Two hours prior to RANKL treatment, DLL4-Fc or a control IgG1-Fc, were injected intravenously into the recipient mice, As described for FIG. 1, RANKL (0.125 mg/kg) was then administered on two consecutive days.
DLL-4 expression is repressed in the presence of […] and IL-17 but can be de-repressed by RANKL. […]

[2] = test system: CD200; assay: CD200 expression in mature osteoclasts by qRT-PCR; format: cell-based, mouse; conditions: TNFα 20 ng/ml or IL-17A 10 ng/ml
Text: as §1
(§2) Osteoclasts seeded on day 4 at 1.5×10^6 cells/ml were used in all experiments. RNA was isolated at time point described in Figure legends. 10 to 50 ng of RNA was used for first-strand cDNA synthesis in 50 μL reaction per kit instructions (Superscript III cDNA synthesis system; Invitrogen). In all cases 10% of the cDNA product was used in a 50 μL PCR reaction that contained 10 μM each forward and reverse primers. For quantitative PCR (qPCR) SYBR green system (Invitrogen) was used. Otherwise, cDNA was amplified (25 cycles) and the products resolved on 1.2% agarose gel and visualized by ethidium bromide staining.

[3] = test system: DLL4; assay: DLL4 expression in mature osteoclasts by qRT-PCR; format: cell-based, mouse; conditions: overnight in 20 ng/ml TNFα or 10 ng/ml IL-17
Text: DLL-4 expression is repressed in the presence of […] and IL-17 but can be de-repressed by RANKL. Having identified that DLL4 was required for osteoclasts to induce Foxp3 expression in CD8+ T cells we next tested if DLL-4 expression was affected by pro-inflammatory cytokines. […] As RANKL induced DLL4 in osteoclast precursors, it was hypothesized that adding additional RANKL may overcome the repression of DLL4 by TNFα. To assess the reversibility of DLL4 expression, mature osteoclasts were cultured overnight in 50 ng/ml RANKL and 20 ng/ml […], and then additional RANKL was added to the culture media (while maintaining 20 ng/ml TNFα) as shown in FIG. 5E. Indeed, addition of RANKL overcomes (within 24 hours) the repression of DLL4 by TNFα as assessed by qRT-PCR. […] The experiment was performed as above, but in this case FoxP3 induction in OT-I CD8 T-cells in the presence of OVA and either 10 ng/ml or 20 ng/ml TNFα was measured.
as §2

Molecule	effect of added agent on TcREG/FoxP3 induction by osteoclasts [1]	CD200 mRNA expression in mature osteoclasts [2]	DLL4 transcripts in mature osteoclasts after cytokine [3]	CD200 mRNA expression in mature osteoclasts ([2]; listed as IL-17)	DLL4 transcripts in mature osteoclasts after cytokine ([3]; listed as IL-17)	effect of added agent on TcREG/FoxP3 induction by osteoclasts ([1]; listed as IL-17)
C[C@H](NC(=O)Cc1cc(F)cc(F)c1)C(=O)N[C@H](C(=O)OC(C)(C)C)c1ccccc1 [DAPT, reference compound]	completely inhibited TcREG induction; also recorded: completely abrogated FoxP3 induction					
TNFα [reference compound]	reduced TcREG induction in a dose dependent manner; also recorded: greatly impaired	had no effect on CD200 expression; also recorded: not altered	DLL4 expression was repressed; also recorded: significantly reduced			
B1	significantly reduced	had no effect on CD200 expression	DLL4 expression was repressed	not altered	significantly reduced	greatly impaired
